Here are results for 4 molecules from publication PMC3196576, “Probing the Functional Mechanism of Escherichia coli GroEL Using Circular Permutation” (PLoS ONE, 2011).

One data set deals with T1, GroEL R231W (E. coli, UniProt P0A6F5 1-548, R231W).
T1 construct: GroEL, Escherichia coli, with Arg231 replaced by tryptophan; also called RW; source: purified according to the protocol of Machida et al. [34]; copies: 14
The data set is described as follows: Proteinase K protection of BeFx football complexes, recovered by centrifugal concentration (100 kDa cutoff), SDS-PAGE; 0.5 µM GroEL 14-mer, 1.0 µM unfolded rhodanese, 1.1 µM GroES, 1 mM BeCl2, 10 mM NaF, 1 mM ATP; 30 mM Tris-HCl pH 7.2, 50 mM KCl, 10 mM Mg(CH3COO)2, 25°C; 1 µg/ml Proteinase K for 30 min. The settings on record: both partners purified.

Data set [1] concerns the molecule itself. The data set is described as follows: SEC; gel filtration profiles observed during purification (AKTA FPLC, 4°C); data not shown.

B1: GroES (natural protein, E. coli, UniProt P0A6F9 1-97, looked up)
chain: MNIRPLHDRVIVKRKEVETKSAGGIVLTGSAAAKSTRGEVLAVGNGRILENGEVKPLDVKVGDIVIFNDGYGVKSEKIDNEEVLIMSESDILAIVEA
notes: GroES cochaperonin, Escherichia coli; 7-mer; also called cochaperonin GroES; co-chaperonin; source: purified according to Iwasa et al. [35], with an 80°C heat treatment
As to B1, the binding result with GroEL R231W is given as “binds”.

B2: GroEL CP209 (other, E. coli)
chain: METGAVELESPFILLADKKISNIREMLPVLEAVAKAGKPLLIIAEDVEGEALATLVVNTMRGIVKVAAVKAPGFGDRRKAMLQDIATLTGGTVISEEIGMELEKATLEDLGQAKRVVINKDTTTIIDGVGEEAAIQGRVAQIRQQIEEATSDYDREKLQERVAKLAGGVAVIKVGAATEVEMKEKKARVEDALHATRAAVEEGVVAGGGVALIRVASKLADLRGQNEDQNVGIKVALRAMEAPLRQIVLNCGEEPSVVANTVKGGDGNYGYNAATEEYGNMIDMGILDPTKVTRSALQYAASVAGLMITTECMVTDLPKNDAADLGAAGGMGGMGGMGGMMVDAAKDVKFGNDARVKMLRGVNVLADAVKVTLGPKGRNVVLDKSFGAPTITKDGVSVAREIELEDKFENMGAQMVKEVASKANDAAGDGTTTATVLAQAIITEGLKAVAAGMNPMDLKRGIDKAVTAAVEELKALSVPCSDSKAIAQVGTISANSDETVGKLIAEAMDKVGKEGVITVEDGTGLQDELDVVEGMQFDRGYLSPYFINKP
notes: start methionine from the vector-derived ATG; GroEL, E. coli, from Glu209 to the original C-terminus; Val-Asp dipeptide linker (SalI site) joining the original C- and N-termini; GroEL, E. coli, from the original N-terminus minus the N-terminal methionine to Pro208; Circular permutant; source: E. coli JM109, purified (protocol of Machida et al. [34]); copies: 14
In the case of B2, the stoichiometry N (in general, the number of molecules, sites or subunits per partner or assembly) in data set [1] was ~14.

B3: bovine rhodanese (enzyme, UniProt P00586 1-297, looked up)
chain: MVHQVLYRALVSTKWLAESVRAGKVGPGLRVLDASWYSPGTREARKEYLERHVPGASFFDIEECRDKASPYEVMLPSEAGFADYVGSLGISNDTHVVVYDGDDLGSFYAPRVWWMFRVFGHRTVSVLNGGFRNWLKEGHPVTSEPSRPEPAIFKATLNRSLLKTYEQVLENLESKRFQLVDSRAQGRYLGTQPEPDAVGLDSGHIRGSVNMPFMNFLTEDGFEKSPEELRAMFEAKKVDLTKPLIATCRKGVTACHIALAAYLCGKPDVAIYDGSWFEWFHRAPPETWVSQGKGGKA
notes: rhodanese (thiosulfate sulfurtransferase), bovine; Unfolded for 1 hr in 6 M guanidine hydrochloride at 25°C before it was added to GroEL; also called unfolded rhodanese; source: bought: Sigma
As for B3, in the data set with GroEL R231W, the binding result is reported as “binds”.

B4: GroEL CP254 (other, E. coli)
chain: MAAAQYVEGEALATLVVNTMRGIVKVAAVKAPGFGDRRKAMLQDIATLTGGTVISEEIGMELEKATLEDLGQAKRVVINKDTTTIIDGVGEEAAIQGRVAQIRQQIEEATSDYDREKLQERVAKLAGGVAVIKVGAATEVEMKEKKARVEDALHATRAAVEEGVVAGGGVALIRVASKLADLRGQNEDQNVGIKVALRAMEAPLRQIVLNCGEEPSVVANTVKGGDGNYGYNAATEEYGNMIDMGILDPTKVTRSALQYAASVAGLMITTECMVTDLPKNDAADLGAAGGMGGMGGMGGMMVDAAKDVKFGNDARVKMLRGVNVLADAVKVTLGPKGRNVVLDKSFGAPTITKDGVSVAREIELEDKFENMGAQMVKEVASKANDAAGDGTTTATVLAQAIITEGLKAVAAGMNPMDLKRGIDKAVTAAVEELKALSVPCSDSKAIAQVGTISANSDETVGKLIAEAMDKVGKEGVITVEDGTGLQDELDVVEGMQFDRGYLSPYFINKPETGAVELESPFILLADKKISNIREMLPVLEAVAKAGKPLLIIAEDVAN
notes: start methionine and extraneous N-terminal residues (Met-Ala-Ala-Ala-Gln-Tyr); GroEL, E. coli, from Val254 to the original C-terminus; Val-Asp dipeptide linker (SalI site) joining the original C- and N-termini; GroEL, E. coli, from the original N-terminus minus the N-terminal methionine to Asp253 (Ala251-Glu252-Asp253); C-terminal residues after Asp253 (Val-Ala-Asn); Circular permutant; source: …
On to B4, for which, in data set [1], the “stoichiometry N” value is ~14.
